Laboratory results as given in paper PMC9482650, “Quantitative fragmentomics allow affinity mapping of interactomes” (Nature Communications, 2022).

T1: GIPC1, O14908
T1 sequence (O14908 128-223, limits assumed, looked up): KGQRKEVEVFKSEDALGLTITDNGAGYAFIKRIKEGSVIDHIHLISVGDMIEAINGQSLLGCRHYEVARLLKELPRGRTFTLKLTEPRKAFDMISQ

T2: INTU, Q9ULD6
T2 sequence (Q9ULD6 180-273, limits assumed, looked up): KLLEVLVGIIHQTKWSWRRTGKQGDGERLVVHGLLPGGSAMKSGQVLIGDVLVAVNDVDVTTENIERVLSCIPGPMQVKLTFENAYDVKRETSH

T3: MPDZ_13, O75970
T3 sequence (O75970 1982-2070, limits assumed, looked up): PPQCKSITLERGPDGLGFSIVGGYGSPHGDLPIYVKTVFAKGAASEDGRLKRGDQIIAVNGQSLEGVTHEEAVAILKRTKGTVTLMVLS

T4: MPDZ_6, O75970
T4 sequence (O75970 1003-1099, limits assumed, looked up): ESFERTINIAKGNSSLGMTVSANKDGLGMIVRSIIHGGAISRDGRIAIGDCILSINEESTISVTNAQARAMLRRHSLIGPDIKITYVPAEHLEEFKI

T5: MPDZ_7, O75970
T5 sequence (O75970 1146-1253, limits assumed, looked up): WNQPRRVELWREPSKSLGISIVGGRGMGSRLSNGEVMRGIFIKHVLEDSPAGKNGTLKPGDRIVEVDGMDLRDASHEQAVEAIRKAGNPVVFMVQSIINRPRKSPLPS

T6: MPP5, Q8N3R9
T6 sequence (Q8N3R9 251-346, limits assumed, looked up): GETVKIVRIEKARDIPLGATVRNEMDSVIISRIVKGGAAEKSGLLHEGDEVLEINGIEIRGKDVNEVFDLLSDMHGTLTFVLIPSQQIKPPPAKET

T7: PARD6G, Q9BYG4
T7 sequence (Q9BYG4 153-261, limits assumed, looked up): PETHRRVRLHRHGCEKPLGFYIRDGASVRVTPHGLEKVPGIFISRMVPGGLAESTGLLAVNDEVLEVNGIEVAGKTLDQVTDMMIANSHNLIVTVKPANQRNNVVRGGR

T8: PTPN4, P29074
T8 sequence (P29074 512-599, limits assumed, looked up): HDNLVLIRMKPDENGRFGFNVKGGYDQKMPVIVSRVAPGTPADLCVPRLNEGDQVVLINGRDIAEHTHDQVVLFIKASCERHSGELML

T9: RGS12, O14924
T9 sequence (O14924 17-108, limits assumed, looked up): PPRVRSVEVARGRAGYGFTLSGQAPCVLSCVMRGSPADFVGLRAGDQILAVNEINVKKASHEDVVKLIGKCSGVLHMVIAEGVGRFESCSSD

T10: SHANK3, Q9BYB0
T10 sequence (Q9BYB0 641-750, limits assumed, looked up): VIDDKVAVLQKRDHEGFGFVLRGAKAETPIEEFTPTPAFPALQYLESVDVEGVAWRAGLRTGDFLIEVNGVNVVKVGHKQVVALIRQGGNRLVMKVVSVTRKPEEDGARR

T11: SNTB2, Q13425
T11 sequence (Q13425 110-208, limits assumed, looked up): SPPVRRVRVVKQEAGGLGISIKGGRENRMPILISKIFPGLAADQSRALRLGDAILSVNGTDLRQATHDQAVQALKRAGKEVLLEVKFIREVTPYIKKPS

B1: TJP2, Q9UDY2 (peptide)
chain: QSARYRDTEL
B2: KIR3DL3, Q8N743 (peptide)
chain: PKTPPTDTSV

Key:
Test in all cases: holdup assay
Parameters in all cases: key: below the threshold = too weak to quantify, mostly under pKd 3.1 to 4
Details in all cases: plain residues with an end cap or a label only (N-terminal biotin on a linker: ttds)
[1] = target: CARD14, Q9BXL6
Chain of CARD14, Q9BXL6 (Q9BXL6 558-663): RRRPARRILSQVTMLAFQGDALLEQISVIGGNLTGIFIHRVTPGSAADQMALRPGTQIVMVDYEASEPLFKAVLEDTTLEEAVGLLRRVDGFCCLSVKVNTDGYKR

[2] = target: DVL2, O14641
Chain of DVL2, O14641 (O14641 260-359): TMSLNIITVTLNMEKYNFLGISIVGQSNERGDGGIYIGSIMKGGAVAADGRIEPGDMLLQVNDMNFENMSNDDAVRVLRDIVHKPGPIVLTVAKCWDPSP

[3] = target: T1, GIPC1, O14908
[4] = target: GIPC3, Q8TF64
Chain of GIPC3, Q8TF64 (Q8TF64 107-202): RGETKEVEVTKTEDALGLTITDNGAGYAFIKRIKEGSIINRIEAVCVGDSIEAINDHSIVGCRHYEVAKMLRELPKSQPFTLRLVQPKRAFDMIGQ

[5] = target: GRIP2_2, Q9C0E4
Chain of GRIP2_2, Q9C0E4 (Q9C0E4 137-245): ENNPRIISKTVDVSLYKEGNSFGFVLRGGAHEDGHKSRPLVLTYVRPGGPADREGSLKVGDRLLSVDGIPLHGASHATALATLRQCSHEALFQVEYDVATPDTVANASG

[6] = target: T2, INTU, Q9ULD6
[7] = target: MAGI1_6, Q96QZ7
Chain of MAGI1_6, Q96QZ7 (Q96QZ7 1146-1238): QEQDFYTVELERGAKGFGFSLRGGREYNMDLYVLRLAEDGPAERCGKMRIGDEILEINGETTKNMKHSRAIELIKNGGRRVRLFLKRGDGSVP

[8] = target: MAGI3_3, Q5TCQ9
Chain of MAGI3_3, Q5TCQ9 (Q5TCQ9 572-655): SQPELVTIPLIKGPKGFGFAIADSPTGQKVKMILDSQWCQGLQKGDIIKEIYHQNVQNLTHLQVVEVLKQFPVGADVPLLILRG

[9] = target: MAST3, O60307
Chain of MAST3, O60307 (O60307 945-1048): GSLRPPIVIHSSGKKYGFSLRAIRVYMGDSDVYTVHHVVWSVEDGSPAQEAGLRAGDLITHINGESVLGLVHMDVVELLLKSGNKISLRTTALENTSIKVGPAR

[10] = target: T3, MPDZ_13, O75970
[11] = target: T4, MPDZ_6, O75970
[12] = target: T5, MPDZ_7, O75970
[13] = target: T6, MPP5, Q8N3R9
[14] = target: PARD3B_2, Q8TEW8
Chain of PARD3B_2, Q8TEW8 (Q8TEW8 376-471): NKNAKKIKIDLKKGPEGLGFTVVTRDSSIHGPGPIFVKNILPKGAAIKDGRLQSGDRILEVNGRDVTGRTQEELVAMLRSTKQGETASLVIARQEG

[15] = target: PARD3B_3, Q8TEW8
Chain of PARD3B_3, Q8TEW8 (Q8TEW8 490-594): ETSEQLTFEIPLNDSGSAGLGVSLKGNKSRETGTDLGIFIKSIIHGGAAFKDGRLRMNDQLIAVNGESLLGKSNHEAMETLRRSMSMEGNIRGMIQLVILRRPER

[16] = target: T7, PARD6G, Q9BYG4
[17] = target: PDLIM4, P50479
Chain of PDLIM4, P50479 (P50479 1-83): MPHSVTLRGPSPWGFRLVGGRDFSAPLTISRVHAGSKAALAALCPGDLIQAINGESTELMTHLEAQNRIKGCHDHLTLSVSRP

[18] = target: T8, PTPN4, P29074
[19] = target: Q13368
[20] = target: Q8IUC4
[21] = target: Q9NPB6
[22] = target: Q9NR12
[23] = target: Q9P227
[24] = target: T9, RGS12, O14924
[25] = target: RGS3, P49796-9
Chain of RGS3, P49796-9 (P49796 other isoform, or with tags, fused parts or gaps): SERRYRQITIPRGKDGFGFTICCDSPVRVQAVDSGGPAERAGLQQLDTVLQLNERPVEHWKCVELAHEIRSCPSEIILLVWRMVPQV

[26] = target: T10, SHANK3, Q9BYB0
[27] = target: T11, SNTB2, Q13425
[28] = target: TJP1_1, Q07157
Chain of TJP1_1, Q07157 (Q07157 18-120): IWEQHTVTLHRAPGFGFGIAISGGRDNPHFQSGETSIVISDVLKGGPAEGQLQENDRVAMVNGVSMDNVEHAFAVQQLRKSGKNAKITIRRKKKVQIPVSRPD

Binder | pKd [1] | pKd [2] | pKd [3] | pKd [4] | pKd [5] | pKd [6] | pKd [7] | pKd [8] | pKd [9] | pKd [10] | pKd [11] | pKd [12] | pKd [13] | pKd [14] | pKd [15] | pKd [16] | pKd [17] | pKd [18] | pKd [19] | pKd [20] | other results
B1 | below the threshold | below the threshold | below the threshold | below the threshold | below the threshold | below the threshold | 4.71 | below the threshold | below the threshold | below the threshold | below the threshold | below the threshold | below the threshold | below the threshold | below the threshold | below the threshold | below the threshold | 4.48 | below the threshold | below the threshold | pKd [21]: below the threshold; pKd [22]: below the threshold; pKd [23]: below the threshold; pKd [24]: below the threshold; pKd [25]: below the threshold; pKd [26]: below the threshold; pKd [27]: below the threshold; pKd [28]: below the threshold
B2 | below the threshold | below the threshold | below the threshold | below the threshold | below the threshold | below the threshold | 4.22 | below the threshold | below the threshold | below the threshold | below the threshold | below the threshold | below the threshold | 4.37 | below the threshold | below the threshold | below the threshold | below the threshold | below the threshold | below the threshold | pKd [21]: below the threshold; pKd [22]: below the threshold; pKd [23]: below the threshold; pKd [24]: below the threshold; pKd [25]: below the threshold; pKd [26]: below the threshold; pKd [27]: below the threshold; pKd [28]: below the threshold
